Key:
Assay in all cases: DTNB spectrophotometric CoA release (A412)
Format in all cases: biochemical, Phaeodactylum tricornutum
[1] = substrate: CCCCCCCCCCCCCC(=O)SCCNC(=O)CCNC(=O)[C@H](O)C(C)(C)COP(=O)(O)OP(=O)(O)OC[C@H]1O[C@@H](n2cnc3c(N)ncnc32)[C@H](O)[C@@H]1OP(=O)(O)O; details: 10 mM HEPES pH 7.5, 50 mM KCl, 0.3 mM DTNB, room temperature in methods (37 °C in Fig. 1 legend)
Text: (§1) DTNB spectrophotometric CoA release (A412) on ptTES1

[2] = substrate: CC(C)(COP(=O)(O)OP(=O)(O)OC[C@H]1O[C@@H](n2cnc3c(N)ncnc32)[C@H](O)[C@@H]1OP(=O)(O)O)[C@@H](O)C(=O)NCCC(=O)NCCSC(=O)CC(=O)O; details: 10 mM HEPES pH 7.5, 50 mM KCl, 0.3 mM DTNB, room temperature in methods (37 °C in Fig. 1 legend)
Text: as §1

[3] = substrate: CCCCCCCCCCCCCCCCCC(=O)SCCNC(=O)CCNC(=O)[C@H](O)C(C)(C)COP(=O)(O)OP(=O)(O)OC[C@H]1O[C@@H](n2cnc3c(N)ncnc32)[C@H](O)[C@@H]1OP(=O)(O)O; details: 10 mM HEPES pH 7.5, 50 mM KCl, 0.3 mM DTNB, room temperature in methods (37 °C in Fig. 1 legend)
Text: as §1

[4] = substrate: CCCCCCCCCC(=O)SCCNC(=O)CCNC(=O)[C@H](O)C(C)(C)COP(=O)(O)OP(=O)(O)OC[C@H]1O[C@@H](n2cnc3c(N)ncnc32)[C@H](O)[C@@H]1OP(=O)(O)O; details: 10 mM HEPES pH 7.5, 50 mM KCl, 0.3 mM DTNB, room temperature in methods (37 °C in Fig. 1 legend)
Text: as §1

[5] = substrate: CC/C=C\C/C=C\C/C=C\C/C=C\C/C=C\CCCC(=O)SCCNC(=O)CCNC(=O)[C@H](O)C(C)(C)COP(=O)(O)OP(=O)(O)OC[C@H]1O[C@@H](n2cnc3c(N)ncnc32)[C@H](O)[C@@H]1OP(=O)(O)O; details: 10 mM HEPES pH 7.5, 50 mM KCl, 0.3 mM DTNB, room temperature in methods (37 °C in Fig. 1 legend)
Text: as §1

[6] = substrate: CCCCCCCC/C=C\CCCCCCCC(=O)SCCNC(=O)CCNC(=O)[C@H](O)C(C)(C)COP(=O)(O)OP(=O)(O)OC[C@H]1O[C@@H](n2cnc3c(N)ncnc32)[C@H](O)[C@@H]1OP(=O)(O)O; details: 10 mM HEPES pH 7.5, 50 mM KCl, 0.3 mM DTNB, room temperature in methods (37 °C in Fig. 1 legend), substrate inhibition above 60 μM
Text: as §1

[7] = substrate: CCCCCCCCCCCCCCCC(=O)SCCNC(=O)CCNC(=O)[C@H](O)C(C)(C)COP(=O)(O)OP(=O)(O)OC[C@H]1O[C@@H](n2cnc3c(N)ncnc32)[C@H](O)[C@@H]1OP(=O)(O)O; details: 10 mM HEPES pH 7.5, 50 mM KCl, 0.3 mM DTNB, room temperature in methods (37 °C in Fig. 1 legend), substrate inhibition above 60 μM
Text: as §1

B1: ptTES1 (Phaeodactylum tricornutum CCAP 1055/1) (protein)
chain: MGLIHTPRTIVSIAKGLWKRRQGTVDWPGLGPDKPYVYNARLGLFDVDYLGHLNNAAYLSHAELARWELTAANGMLTSMLQSGTNFIVSGSCIRYRQEIRPVFRKFQVDTYVAGLDQRTIWMVQNFRYPGQNERIRAQMIVQGVAVQKTKGIIDPRSFFVDTVGMPSDLIESVNLPITSDDTVEDVLERYSFLEKALRRAATVDDELQKKEANKE
notes: codon-optimized synthetic gene in pET28a, His6-tagged, E. coli Rosetta (DE3), Ni-NTA purified, about 25 kDa on SDS-PAGE; tag removal not mentioned
B1 showed a Km [1] of 21.79 µM, a Vmax [1] of 0.0302 µmol/min/mg and a kcat [1] of 0.0131 s⁻¹. The kcat/Km [1] was 602 M⁻¹ s⁻¹, the Km [2] was 14.64 µM and the Vmax [2] was 0.00205 µmol/min/mg. The kcat [2] was 0.0009 s⁻¹, the kcat/Km [2] was 60.7 M⁻¹ s⁻¹ and the Km [3] was 8.246 µM. For the same protein, the Vmax [3] was 0.0451 µmol/min/mg, the kcat [3] was 0.0196 s⁻¹ and the kcat/Km [3] was 2370 M⁻¹ s⁻¹. It also gave a Km [4] of 91.76 µM, a Vmax [4] of 0.0228 µmol/min/mg and a kcat [4] of 0.0099 s⁻¹. It also gave a kcat/Km [4] of 108 M⁻¹ s⁻¹, a Km [5] of 38.61 µM and a Vmax [5] of 0.0164 µmol/min/mg. It also gave a kcat [5] of 0.0071 s⁻¹, a kcat/Km [5] of 184 M⁻¹ s⁻¹ and a Km [6] of 12.37 µM. It also gave a Vmax [6] of 0.0508 µmol/min/mg, a kcat [6] of 0.022 s⁻¹ and a kcat/Km [6] of 1780 M⁻¹ s⁻¹. The Km [7] was 14.76 µM, the Vmax [7] was 0.0453 µmol/min/mg and the kcat [7] was 0.0196 s⁻¹. It also gave a kcat/Km [7] of 1330 M⁻¹ s⁻¹.
